Results published in IntAct's records for PubMed 16292983.

B1: Ankyrin-2 (Homo sapiens), Q01484-2 (parent)
chain: MMNEDAAQKSDSGEKFNGSSQRRKRPKKSDSNASFLRAARAGNLDKVVEYLKGGIDINTCNQNGLNALHLAAKEGHVGLVQELLGRGSSVDSATKKGNTALHIASLAGQAEVVKVLVKEGANINAQSQNGFTPLYMAAQENHIDVVKYLLENGANQSTATEDGFTPLAVALQQGHNQAVAILLENDTKGKVRLPALHIAARKDDTKSAALLLQNDHNADVQSKMMVNRTTESGFTPLHIAAHYGNVNVATLLLNRGAAVDFTARNGITPLHVASKRGNTNMVKLLLDRGGQIDAKTRDGLTPLHCAARSGHDQVVELLLERGAPLLARTKNGLSPLHMAAQGDHVECVKHLLQHKAPVDDVTLDYLTALHVAAHCGHYRVTKLLLDKRANPNARALNGFTPLHIACKKNRIKVMELLVKYGASIQAITESGLTPIHVAAFMGHLNIVLLLLQNGASPDVTNIRGETALHMAARAGQVEVVRCLLRNGALVDARAREEQTPLHIASRLGKTEIVQLLLQHMAHPDAATTNGYTPLHISAREGQVDVASVLLEAGAAHSLATKKGFTPLHVAAKYGSLDVAKLLLQRRAAADSAGKNGLTPLHVAAHYDNQKVALLLLEKGASPHATAKNGYTPLHIAAKKNQMQIASTLLNYGAETNIVTKQGVTPLHLASQEGHTDMVTLLLDKGANIHMSTKSGLTSLHLAAQEDKVNVADILTKHGADQDAHTKLGYTPLIVACHYGNVKMVNFLLKQGANVNAKTKNGYTPLHQAAQQGHTHIINVLLQHGAKPNATTANGNTALAIAKRLGYISVVDTLKVVTEEVTTTTTTITEKHKLNVPETMTEVLDVSDEEGDDTMTGDGGEYLRPEDLKELGDDSLPSSQFLDGMNYLRYSLEGGRSDSLRSFSSDRSHTLSHASYLRDSAVMDDSVVIPSHQVSTLAKEAERNSYRLSWGTENLDNVALSSSPIHSGFLVSFMVDARGGAMRGCRHNGLRIIIPPRKCTAPTRVTCRLVKRHRLATMPPMVEGEGLASRLIEVGPSGAQFLGKLHLPTAPPPLNEGESLVSRILQLGPPGTKFLGPVIVEIPHFAALRGKERELVVLRSENGDSWKEHFCDYTEDELNEILNGMDEVLDSPEDLEKKRICRIITRDFPQYFAVVSRIKQDSNLIGPEGGVLSSTVVPQVQAVFPEGALTKRIRVGLQAQPMHSELVKKILGNKATFSPIVTLEPRRRKFHKPITMTIPVPKASSDVMLNGFGGDAPTLRLLCSITGGTTPAQWEDITGTTPLTFVNECVSFTTNVSARFWLIDCRQIQESVTFASQVYREIICVPYMAKFVVFAKSHDPIEARLRCFCMTDDKVDKTLEQQENFAEVARSRDVEVLEGKPIYVDCFGNLVPLTKSGQHHIFSFFAFKENRLPLFVKVRDTTQEPCGRLSFMKEPKSTRGLVHQAICNLNITLPIYTKESESDQEQEEEIDMTSEKNPQDEQERIEERLAYIADHLGFSWTELARELDFTEEQIHQIRIENPNSLQDQSHALLKYWLERDGKHATDTNLVECLTKINRMDIVHLMETNTEPLQERISHSYAEIEQTITLDHSEGFSVLQEELCTAQHKQKEEQAVSKESETCDHPPIVSEEDISVGYSTFQDGVPKTEGDSSATALFPQTHKEQVQQDFSGKMQDLPEESSLEYQQEYFVTTPGTETSETQKAMIVPSSPSKTPEEVSTPAEEEKLYLQTPTSSERGGSPIIQEPEEPSEHREESSPRKTSLVIVESADNQPETCERLDEDAAFEKGDDMPEIPPETVTEEEYIDEHGHTVVKKVTRKIIRRYVSSEGTEKEEIMVQGMPQEPVNIEEGDGYSKVIKRVVLKSDTEQSEDNNE

Variants of: B1
Conditions: with nac1_human SLC8A1, P32418

Row | Variant | effect of a mutation on the interaction
1 | E1458G | disrupting interaction
